Laboratory results: publication PMC9221443, “Peptidomimetics Based on C-Terminus of Blm10 Stimulate Human 20S Proteasome Activity and Promote Degradation of Proteins” (Biomolecules, 2022)

Tested on: 20S proteasome (h20S)
Test: Microscale thermophoresis (MST) protein-proteasome interaction
Assay type: binding, human
Conditions: NT-647-labeled protein titrated with h20S 0.06-1965 nM; 22 °C; 20 mM Tris-HCl pH 7.2; three independent experiments; read-out: EC50 of binding to 20S proteasome (MST, Hill fit)
Protocol: Enolase, α-synuclein and their oxidized forms were labeled using Monolith Protein Labeling Kit RED-NHS 2nd Generation Amine Reactive, NT-647 (Nanotemper, München, Germany), according to the manufacturer instructions. The labeling process was carried out in 50 mM HEPES buffer, pH 7.4, in the protein:NT-647 1:2 ratio. The incubation time was 60 min for enolase and 30 min for α-synuclein, at 21 °C. After labeling, the excess of the fluorescent reagent was removed using the columns provided by the manufacturer and 20 mM Tris-HCl buffer, pH 7.2, containing 200 mM NaCl and 10% glycerol. The obtained labeled proteins were concentrated on Amicon 3K spin-columns (Merck, Darmstadt, Germany). Protein concentrations were determined by measuring absorbance at 280 nm, using UV/Vis spectrophotometer (DU®730 Beckman Coulter).
Direct interactions between the fluorescently labeled, native and oxidized, proteins and the 20S proteasome were examined using microscale thermophoresis (NanoTemper Monolith NT.115). The labeled protein concentration was kept constant at 250 nM for native and oxidized α-synuclein and 125 nM and 25 nM for native and oxidized enolase, respectively. […] The EC50 values were calculated based on results obtained in three independent experiments.

EC50: 87.8 ± 12.9 nM
B1: oxidized enolase: human enolase 2 incubated with 0.5% H2O2 for 2 h at 30 °C (protein, UniProt P09104 2-434, looked up)
Gamma-enolase: SIEKIWAREILDSRGNPTVEVDLYTAKGLFRAAVPSGASTGIYEALELRDGDKQRYLGKGVLKAVDHINSTIAPALISSGLSVVEQEKLDNLMLELDGTENKSKFGANAILGVSLAVCKAGAAERELPLYRHIAQLAGNSDLILPVPAFNVINGGSHAGNKLAMQEFMILPVGAESFRDAMRLGAEVYHTLKGVIKDKYGKDATNVGDEGGFAPNILENSEALELVKEAIDKAGYTEKIVIGMDVAASEFYRDGKYDLDFKSPTDPSRYITGDQLGALYQDFVRDYPVVSIEDPFDQDDWAAWSKFTANVGIQIVGDDLTVTNPKRIERAVEEKACNCLLLKVNQIGSVTEAIQACKLAQENGWGVMVSHRSGETEDTFIADLVVGLCTGQIKTGAPCRSERLAKYNQLMRIEEELGDEARFAGHNFRNPSVL
modifications: H2O2-oxidized
notes: human enolase 2 incubated with 0.5% H2O2 for 2 h at 30 °C
